From patent publication US20130266567A1 (published 2013) come the findings set out here.

Experiment [1] addresses T1, Human serum albumin (human, UniProt P02768 25-609).
T1 construct: coupled to CM5 BIAcore chip; also called human SA; HSA
The experiment in a line: SPR, BIAcore 3000, serum albumin coupled to CM5 chip.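 Further: Cross-reactivity of anti-serum albumin domain antibodies measured against human, cynomolgus monkey, rat and mouse serum albumin, binding kinetics giving Kd.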
Experimental: (§1) Cross-reactivity of the AlbudAbs™ (ie, anti-serum albumin dAbs) was determined against human, Cynomolgus monkey (cyno), rat and mouse serum albumin using surface plasmon resonance (SPR). In this case, Biacore™ was used. Biacore™ 2000/3000 was used for the supernatant screens and determination of binding kinetic all of dAbs described herein. Biacore™ T100 was used for the determination of cross-reactivity of lead Vk and VH Albudabs to a wider range of species' SAs (12 in total). Protein samples were run on the T100 BIAcore as described for the BIAcore2000/3000 experiments. […] Where appropriate, a kinetic Langmuir 1:1 fitting model was used.

The target of experiment [2] is T2, Rat serum albumin (rat, UniProt P02770 25-608).
T2 construct: coupled to CM5 BIAcore chip; also called rat SA; RSA
The description is as above.
Experimental: as §1

For experiment [3], the target named is T3, Cynomolgus serum albumin (Cynomolgus monkey, UniProt A2V9Z4 25-608).
T3 construct: mature; purified native protein; coupled to CM5 BIAcore chip; also called cyno SA; CSA
The experiment is described as above.
Experimental: as §1

Experiment [4] deals with T4, Mouse serum albumin (mouse, UniProt P07724 25-608).
T4 construct: mature; bought purified protein; coupled to CM5 BIAcore chip; also called mouse SA; MSA
The description is as above.
Experimental: as §1

Experiment [5] concerns the target T2, Rat serum albumin. As to the kind of experiment: SPR, BIAcore 3000, serum albumin coupled to CM5 chip;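 further: Cross-reactivity of anti-serum albumin domain antibodies measured against human, cynomolgus monkey, rat and mouse serum albumin, binding kinetics giving Kd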; last of the independent measurements on different protein batches. (In general: SPR reads the build-up and loss of mass on a sensor chip optically.)
Another experiment deals with Ferret serum albumin (ferret). The experiment in a line: SPR, BIAcore T100, equilibrium KD.
Another experiment deals with Pig serum albumin (pig, UniProt P08835 25-607). As to the kind of experiment: SPR, BIAcore T100, equilibrium KD.
Another experiment addresses Rabbit serum albumin (rabbit, UniProt P49065 25-608). The experiment in a line: SPR, BIAcore T100, equilibrium KD.
The next experiment concerns the target Sheep serum albumin (sheep, UniProt P14639 25-607). The experiment in a line: SPR, BIAcore T100, equilibrium KD.
The target in a further experiment is Mini Pig serum albumin (mini pig). The experiment in a line: SPR, BIAcore T100, equilibrium KD.
For experiment [6], the target named is T1, Human serum albumin. As to the kind of experiment: SPR, BIAcore T100, equilibrium KD.
Experimental: as §1
Another experiment addresses Dog serum albumin (dog, UniProt P49822 25-608). The experiment in a line: SPR, BIAcore T100, equilibrium KD.
For experiment [7], the target named is T4, Mouse serum albumin. As to the kind of experiment: SPR, BIAcore T100, equilibrium KD.
Experimental: as §1
In experiment [8] the target is T2, Rat serum albumin. As to the kind of experiment: SPR, BIAcore T100, equilibrium KD.
Experimental: as §1
In experiment [9] the target is T3, Cynomolgus serum albumin. As to the kind of experiment: SPR, BIAcore T100, equilibrium KD.
Experimental: as §1
In a further experiment the target is Marmoset serum albumin (marmoset). The experiment in a line: SPR, BIAcore T100, equilibrium KD.
For the next experiment, the target named is Guinea Pig serum albumin (guinea pig). As to the kind of experiment: SPR, BIAcore T100, equilibrium KD.
Experiment [10] has as its target T1, Human serum albumin. As to the kind of experiment: SPR, BIAcore 3000, serum albumin coupled to CM5 chip; first of two independent measurements on different protein batches.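 Further: Cross-reactivity of anti-serum albumin domain antibodies measured against human, cynomolgus monkey, rat and mouse serum albumin, binding kinetics giving Kd.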
Experimental: as §1
Experiment [11] deals with T1, Human serum albumin. The experiment in a line: SPR, BIAcore 3000, serum albumin coupled to CM5 chip; second of two independent measurements; marked with an unexplained caret.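 Further: Cross-reactivity of anti-serum albumin domain antibodies measured against human, cynomolgus monkey, rat and mouse serum albumin, binding kinetics giving Kd.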
Experimental: as §1

Where “and” joins values, the source holds several entries; their conditions need not be identical. Identical values can stand only once.

Experimental for Dog serum albumin: as §1
Experimental for Ferret serum albumin: as §1
Experimental for Guinea Pig serum albumin: as §1
Experimental for Marmoset serum albumin: as §1
Experimental for Mini Pig serum albumin: as §1
Experimental for Rabbit serum albumin: as §1
Experimental for Sheep serum albumin: as §1

B1: DOM7r-36-2 (VHH)
VHH: EVQLLESGGGLVQPGGSLRLSCAASGFTFNHYTMGWVRQAPGKGREWVSLIHPSGTVTYYADSVKGRFTISRDNSKNTLYLQMNSLRAEDTAVYYCAKWSSRAFDYWGQGTLVTVSS
notes: VH immunoglobulin single variable domain (dAb, AlbudAb), not a camelid VHH; tested with a myc tag; also called 7r36-2 (Parent); not shown: myc tag
For B1, the dissociation constant (Kd) was 190 nM and 360 nM and 305 nM and 385 nM with Human serum albumin [1]; 467 nM and 330 nM and 244 nM and 229 nM with Rat serum albumin [2]; 800 nM and 815 nM and 628 nM and 1500 nM with Cynomolgus serum albumin [3].

B2: DOM7r-36-103 (VHH)
VHH: EVQLLESGGGLVQPGGSLRLSCAASGFTFNHYTMGWVRQAPGKGREWVSLIHPSGTVTYYADSVKGRFTTSRDNSKNTLYLQMNSLRAEDTAVYYCAKWDRKLFDHWGQGTLVTVSS
notes: VH immunoglobulin single variable domain (dAb, AlbudAb), not a camelid VHH; tested with a myc tag; not shown: myc tag
In the case of B2, the Kd with Human serum albumin [1] was 62 nM and 65 nM; with Mouse serum albumin [4], 270 nM; with Rat serum albumin [2], 100 nM and 57 nM; in the experiment with Cynomolgus serum albumin [3], 94 nM.

B3: DOM7r-36-106 (VHH)
VHH: EVQLLESGGGLVQPGGSLRLSCAASGFTFNHYTMGWVRQAPGKGREWVSLIHPSGTVTYYADSVKGRFTISRDNSKNTLYLQMNSLRAEDTAVYYCAKFRGRGFDYWGQGTLVTVSS
notes: as for B2
For B3, the Kd is 42 nM with Rat serum albumin [5]; 209 nM and 124 nM with Human serum albumin [1]; 113 nM and 73 nM with Mouse serum albumin [4]; 75 nM in the experiment with Rat serum albumin [2]; 840 nM and 1100 nM with Cynomolgus serum albumin [3].

B4: DOM7r-36-105 (VHH)
VHH: EVQLLESGGGLVQPGGSLRLSCAASGFTFNHYTMGWVRQAPGKGREWVSLIHPSGTVTYYADSVKGRFTISRDNSKNTLYLQMNSLRAEDTAVYYCAKLGTKVFDYWGQGTLVTVSS
notes: as for B2
Consider B4, for which the equilibrium dissociation constant (Kd) with Human serum albumin [1] was 284 nM and 313 nM; in the experiment with Rat serum albumin [2] it was 170 nM.

B5: DOM7r-36-102 (VHH)
VHH: EVQLLESGGGLVQPGGSLRLSCAASGFTFNHYTMGWVRQAPGKGREWVSLIHPSGTVTYYADSVKGRFTISRDNSKNTLYLQMNSLRAEDTAVYYCAKWFYRNFDYWGQGTLVTVSS
notes: as for B2
As to B5, the dissociation constant Kd came to 250 nM in the experiment with Mouse serum albumin [4], 100 nM in the experiment with Rat serum albumin [2] and 430 nM in the experiment with Cynomolgus serum albumin [3].

B6: DOM7r-36-108 (VHH)
VHH: EVQLLESGGGLVQPGGSLRLSCAASGFTFNHYTMGWVRQAPGKGREWVSLIHPSGTVTYYADSVKGRFTTSRDNSKNTLYLQMNSLRAEDTAVYYCAKLEGRSFDYWGQGTLVTVSS
notes: as for B2
As to B6, the equilibrium dissociation constant (Kd) was 82 nM and 67 nM with Human serum albumin [1]; 37.6 nM with Mouse serum albumin [4]; 265 nM in the experiment with Cynomolgus serum albumin [3].

B7: DOM7r-36-100 (VHH)
VHH: EVQLLESGGGLVQPGGSLRLSCAASGFTFNHYTMGWVRQAPGKGREWVSLIHPSGTVTYYADSVKGRFTISRDNSKNTLYLQMNSLRAEDTAVYYCAKWERRTFDYWGQGTLVTVSS
notes: as for B2
As to B7, the Kd with Human serum albumin [1] is 74 nM and 100 nM and 35 nM; with Mouse serum albumin [4] it was 100 nM; with Rat serum albumin [2], 105 nM and 70 nM; with Cynomolgus serum albumin [3] it was 87 nM and 230 nM.

B8: DOM7r-36-101 (VHH)
VHH: EVQLLESGGGLVQPGGSLRLSCAASGFTFNHYTMGWVRQAPGKGREWVSLIHPSGTVTYYADSVKGRFTISRDNSKNTLYLQMNSLRAEDTAVYYCAKWFLKSFDYWGQGTLVTVSS
notes: as for B2
For B8, the Kd was 86 nM with Human serum albumin [1], 183 nM with Rat serum albumin [2] and 72 nM in the experiment with Cynomolgus serum albumin [3].

B9: DOM7r-92-100 (VHH)
VHH: EVQLLESGGGLVQPGGSLRLSCAASGFTFDTSSMLWVRQAPGKGLEWVSVIHQSGTPTYYADSVKGRFTISRDNSKNTLYLQMNSLRAEDTAVYYCAKFPSSRMKFDYWGQGTLVTVSS
notes: VH immunoglobulin single variable domain (dAb, AlbudAb), not a camelid VHH; tested with a myc tag; MALLS: dimer 10%, monomer 90%; also called DOM7r-92-100 myc; not shown: myc tag
On to B9, for which the dissociation constant (Kd) with Ferret serum albumin worked out at 317 nM; with Pig serum albumin it was 191 nM; in the experiment with Rabbit serum albumin it was 136 nM; with Sheep serum albumin it was 569 nM; with Mini Pig serum albumin, 308 nM; in the experiment with Human serum albumin [6], 3.56 nM. The Kd is 450 nM with Dog serum albumin; 61.5 nM with Mouse serum albumin [7]; 54.3 nM with Rat serum albumin [8]; 10.7 nM with Cynomolgus serum albumin [9]; 7.37 nM with Marmoset serum albumin; 33 nM and 90 nM with Mouse serum albumin [4].

B10: DOM7r-92-103 (VHH)
VHH: EVQLLESGGGLVQPGGSLRLSCAASGFTFDTSSMLWVRQAPGKGLEWVSVIHQSGTPTYYADSVKGRFTISRDNSKNTLYLQMNSLRAEDTAVYYCAKFPSEGMNFDYWGQGTLVTVSS
notes: as for B2
As to B10, the Kd in the experiment with Human serum albumin [1] was 160 nM and 123 nM; with Cynomolgus serum albumin [3], 770 nM.

B11: DOM7r-92-4 (VHH)
VHH: EVQLLESGGGLVQPGGSLRLSCAASGFTFDTSSMLWVRQAPGKGLEWVSVIHQSGTPTYYADSVKGRFTISRDNSKNTLYLQMNSLRAEDTAVYYCAKFPSTHGKFDYWGQGTLVTVSS
notes: VH immunoglobulin single variable domain (dAb, AlbudAb), not a camelid VHH; tested with a myc tag; also called 7r92-4 (Parent); not shown: myc tag
Take B11: the Kd in the experiment with Human serum albumin [1] was 260 nM and 420 nM.

B12: DOM7r-92-102 (VHH)
VHH: EVQLLESGGGLVQPGGSLRLSCAASGFTFDTSSMLWVRQAPGKGLEWVSVIHQSGTPTYYADSVKGRFTISRDNSKNTLYLQMNSLRAEDTAVYYCAKFPSSQFRFDYWGQGTLVTVSS
notes: as for B2
As for B12, the Kd was 28 nM with Human serum albumin [1], 280 nM in the experiment with Mouse serum albumin [4], 100 nM with Rat serum albumin [2] and 32 nM with Cynomolgus serum albumin [3].

B13: DOM7r-92-101 (VHH)
VHH: EVQLLESGGGLVQPGGSLRLSCAASGFTFDTSSMLWVRQAPGKGLEWVSVIHQSGTPTYYADSVKGRFTISRDNSKNTLYLQMNSLRAEDTAVYYCAKFPSRKMKFDYRGQGTLVTVSS
notes: as for B2
Turning to B13, the equilibrium dissociation constant (Kd) is 15 nM and 8 nM in the experiment with Human serum albumin [1]; 56 nM in the experiment with Mouse serum albumin [4]; 23 nM and 16 nM in the experiment with Rat serum albumin [2]; 120 nM with Cynomolgus serum albumin [3].

B14: DOM7r-31-14 (VHH)
VHH: EVQLLESGGGLVQPGGSLRLSCTASGFTFRHYRMGWVRQAPGKGLEWVSWIRPDGTFTYYADSVKGRFTISRDNSKNTLYLQMNSLRAEDTAVYYCAKSYMADRFDYWGQGTLVTVSS
notes: VH immunoglobulin single variable domain (dAb, AlbudAb), not a camelid VHH; tested with a myc tag; also called 7r31-14 (Parent); not shown: myc tag
In the case of B14, the dissociation constant (Kd) with Mouse serum albumin [4] was 6 nM and 12 nM and 14.2 nM.

B15: DOM7r-31-101 (VHH)
VHH: EVQLLESGGGLVQPGGSLRLSCTASGFTFRHYRMGWVRQAPGKGLEWVSWIRPDGTFTYYADSVKGRFTISRDNSKNTLYLQMNSLRAEDTAVYYCAKSYQAGTFDYWGQGTLVTVSS
notes: as for B2
In the case of B15, in the experiment with Human serum albumin [1], the Kd was 367 nM and 240 nM.

B16: DOM7r-31-102 (VHH)
VHH: EVQLLESGGGLVQPGGSLRLSCTASGFTFRHYRMGWVRQAPGKGLEWVSWIRPDGTFTYYADSVKGRFTISRDNSKNTLYLQMNSLRAEDTAVYYCAKSYHADKFDYWGQGTLVTVSS
notes: as for B2
B16: the Kd was 158 nM and 100 nM with Human serum albumin [1]; 67 nM and 30 nM in the experiment with Rat serum albumin [2].

B17: DOM7r-31-103 (VHH)
VHH: EVQLLESGGGLVQPGGSLRLSCTASGFTFRHYRMGWVRQAPGKGLEWVSWIRPDGTFTYYADSVKGRFTISRDNSKNTLYLQMNSLRAEDAAVYYCAKSYMSGTFDYWGQGTLVTVSS
notes: as for B2
As to B17, the Kd in the experiment with Human serum albumin [1] was 200 nM and 95 nM; with Rat serum albumin [2], 40 nM.

B18: DOM7r-31-104 (VHH)
VHH: EVQLLESGGGLVQPGGSLRLSCTASGFTFRHYRMGWVRQAPGKGLEWVSWIRPDGTFTYYADSVKGRFTISRDNSKNTLYLQMNSLRAEDTAVYYCAKSYMAGTFDYWGQGTLVTVSS
notes: as for B2
With B18, the Kd with Ferret serum albumin turned out to be 13.9 nM; in the experiment with Pig serum albumin, 415 nM; with Rabbit serum albumin it was 1990 nM; in the experiment with Mini Pig serum albumin, 412 nM; with Guinea Pig serum albumin, 1630 nM; with Human serum albumin [6] it was 25.9 nM. Moreover, the dissociation constant (Kd) is 8.26 nM with Dog serum albumin; 59.5 nM with Mouse serum albumin [7]; 6.09 nM with Rat serum albumin [8]; 4900 nM in the experiment with Marmoset serum albumin; 11.9 nM and 7.6 nM in the experiment with Rat serum albumin [2]; 89.1 nM with Human serum albumin [10]. In the experiment with Human serum albumin [11], the Kd was 81 nM.

B19: DOM7r-31-100 (VHH)
VHH: EVQLLEPGGGLVQPGGSLRLSCTASGFTFRHYRMGWVRQAPGKGLEWVSWIRPDGTFTYYADSVKGRFTISRDNSKNTLYLQMNSLRAEDTAVYYCAKSYLSGTFDYWGQGTLVTVSS
notes: as for B2
As for B19, the Kd is 260 nM and 287 nM with Human serum albumin [1]; 5.4 nM and 12.7 nM in the experiment with Mouse serum albumin [4]; 40 nM and 41 nM with Rat serum albumin [2].

A word on the Kd: it is the constant that tells how readily two partners part at equilibrium.
